Assay results: patent publication US20240197738

Target: EWS-FLI1-3A (S464A/S465A/S466A)

B1: OTUD7A (protein)
chain: MVSSVLPNPTSAECWAALLHDPMTLDMDAVLSDFVRSTGAEPGLARDLLEGKNWDLTAALSDYEQLRQVHTANLPHVFNEGRGPKQPEREPQPGHKVERPCLQRQDDIAQEKRLSRGISHASSAIVSLARSHVASECNNEQFPLEMPIYTFQLPDLSVYSEDFRSFIERDLIEQATMVALEQAGRLNWWSTVCTSCKRLLPLATTGDGNCLLHAASLGMWGFHDRDLVLRKALYTMMRTGAEREALKRRWRWQQTQQNKEEEWEREWTELLKLASSEPRTHFSKNGGTGGGVDNSEDPVYESLEEFHVFVLAHILRRPIVVVADTMLRDSGGEAFAPIPFGGIYLPLEVPPNRCHCSPLVLAYDQAHFSALVSMEQRDQQREQAVIPLTDSEHKLLPLHFAVDPGKDWEWGKDDNDNARLAHLILSLEAKLNLLHSYMNVTWIRIPSETRAPLAQPESPTASAGEDVQSLADSLDSDRDSVCSNSNSNNGKNGKDKEKEKQRKEKDKTRADSVANKLGSFSKTLGIKLKKNMGGLGGLVHGKMGRANSANGKNGDSAERGKEKKAKSRKGSKEESGASASTSPSEKTTPSPTDKAAGASPAEKGGGPRGDAWKYSTDVKLSLNILRAAMQGERKFIFAGLLLTSHRHQFHEEMIGYYLTSAQERFSAEQEQRRRDAATAAAAAAAAAAATAKRPPRRPETEGVPVPERASPGPPTQLVLKLKERPSPGPAAGRAARAAAGGTASPGGGARRASASGPVPGRSPPAPARQSVIHVQASGARDEACAPAVGALRPCATYPQQNRSLSSQSYSPARAAALRTVNTVESLARAVPGALPGAAGTAGAAEHKSQTYTNGFGALRDGLEFADADAPTARSNGECGRGGPGPVQRRCQRENCAFYGRAETEHYCSYCYREELRRRREARGARP
For B1, the “3A-EWS-FLI1 protein level after OTUD7A depletion (immunoblot, FIG. 3I)” value was “depletion of OTUD7A failed to reduce 3A-EWS-FLI1 protein levels”.
